In the RNAGym collection of RNA variant scans (doi:10.1073/pnas.2313332121):

B1: TPR t1 (parent)
chain: GACCAAUCUGCCCUCAGAGCUCGAGAACAUCUUCGGAUGCAGAGGAGGCAGGCUUCGGUGGCGCGAUAGCGCCAACGUCCUCAACCUCCAAUGCAUCCCACCACAUGAUGAUGCCUGAAGAGCCUUGGUUUUUUG

Variants of: B1
Assay: polymerase ribozyme fitness, log enrichment relative to wild type (log ratio); higher = more active; in vitro selection for triplet polymerase activity
Procedure, shortened: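 Fitness compares each genotype's enrichment to that of the wild type on a logarithmic scale, averaging replicates with inverse-variance weights. The logarithm is base 2. Enrichment came from Illumina sequencing of input and output libraries after one triplicate round of in vitro selection, which included frozen incubation at −7 °C, of PCR-built, transcribed mutant libraries of each subunit of a heterodimeric triplet polymerase ribozyme. Only genotypes with ≥10 input reads and ≥1 read per output were kept.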

Going from C40U C85A G113C to C40A C101U, the “polymerase ribozyme fitness (log ratio)” value rises from -3.42 to -1.61.

Compared with C40U C49A C89G, C40G G57U G63C A91C is lower in “polymerase ribozyme fitness (log ratio)” value: -2.46 for the first, -3.66 for the second.

Compared with C40G A43U C73A U126C, C40U C73U C80U G117U is lower in “polymerase ribozyme fitness (log ratio)” value: -3.57 for the first, -4.15 for the second.

First: C40A C94G G120A U129A
Second: C40G G52A
The “polymerase ribozyme fitness (log ratio)” value of the first is lower: -3.13 for the first, -0.59 for the second.

First: C40U A118G
Second: C40G G51U U87A A90G G117U
The “polymerase ribozyme fitness (log ratio)” value of the first is higher: -1.24 for the first, -5.66 for the second.

Compared with C40U A46G G61U G110A U116A, C40A G60A G93A A121U is higher in “polymerase ribozyme fitness (log ratio)” value: -3.75 for the first, 1 for the second.

C40U A43U and C40A G48A U55A G60U A95G G120C are within 0.2 log units of each other in “polymerase ribozyme fitness (log ratio)” value: -1.09 for the first, -1.07 for the second.

First: C40G C53U C94G G107U C124U U125G
Second: C40U C53U U78C U92A G93A A111C
The “polymerase ribozyme fitness (log ratio)” value of the first is lower: -7.6 for the first, -4.45 for the second.

Going from C40A A43U C89U C102U U106C C123A to C40U A74G C88U G120A A121C, the “polymerase ribozyme fitness (log ratio)” value rises from -6.44 to -0.0609.

Compared with C40U A84C, C40U G47C C53U is lower in “polymerase ribozyme fitness (log ratio)” value: -0.985 for the first, -3.49 for the second.

Compared with C40A G45U G63A G69C C82A C86G C101U C114G, C40U C76U is higher in “polymerase ribozyme fitness (log ratio)” value: -6.64 for the first, -0.869 for the second.

Compared with C40U U112A, C40G G48U U92A is lower in “polymerase ribozyme fitness (log ratio)” value: 0.76 for the first, -4.05 for the second.

Compared with C40U C62G G110U, C40U C88A C101A A121U is higher in “polymerase ribozyme fitness (log ratio)” value: -4.6 for the first, -0.199 for the second.

Compared with C40A G61A C80U, C40G G58A G107U U112A G122U is lower in “polymerase ribozyme fitness (log ratio)” value: -2.91 for the first, -5.89 for the second.

First: C40A G45U G63A
Second: C40A C56A C97U
The “polymerase ribozyme fitness (log ratio)” value of the first is lower: -2.99 for the first, -1.12 for the second.

C40A A66U C72G C94U and C40A C79G are within 0.2 log units of each other in “polymerase ribozyme fitness (log ratio)” value: -3.54 for the first, -3.35 for the second.

Going from C40G C89G to C40U A46U A100U, the “polymerase ribozyme fitness (log ratio)” value falls from -2.85 to -3.37.

Going from C40G C62A C124A to C40G C85A, the “polymerase ribozyme fitness (log ratio)” value falls from -0.241 to -2.32.

C40A G51A U78C C124A and C40U A41C G48U C56U G58C G63U are within 0.2 log units of each other in “polymerase ribozyme fitness (log ratio)” value: -3.18 for the first, -3.13 for the second.

Compared with C40U C53A C73A C104U, C40A A111U is lower in “polymerase ribozyme fitness (log ratio)” value: 0.971 for the first, -4.74 for the second.

Compared with C40A G44C C49G U54A G71A C99U U109A C115U U130G, C40U G57C G58A U116G is higher in “polymerase ribozyme fitness (log ratio)” value: -6.71 for the first, -3.95 for the second.

Compared with C40G C62U G93C G128U, C40A C49G U55C A95C G120A is lower in “polymerase ribozyme fitness (log ratio)” value: -1.46 for the first, -2.38 for the second.

Going from C40A C94G C97U G113U to C40U G117U, the “polymerase ribozyme fitness (log ratio)” value rises from -7.66 to -1.71.

First: C40A G110A U116A
Second: C40U G69C G93A U96G
The “polymerase ribozyme fitness (log ratio)” value of the first is lower: -5.12 for the first, -2.24 for the second.

Compared with C40U U55C, C40U G71C is lower in “polymerase ribozyme fitness (log ratio)” value: -0.711 for the first, -1.58 for the second.

Going from C40A A41U to C40A U87A C88U G135C, the “polymerase ribozyme fitness (log ratio)” value falls from -2.43 to -2.71.

First: C40A A108G A119G G122U
Second: C40A A41G G42A A43G G122U
The “polymerase ribozyme fitness (log ratio)” value of the first is higher: -2.47 for the first, -3.41 for the second.

First: C40G A100U U133G
Second: C40U U55C C70U
The “polymerase ribozyme fitness (log ratio)” value of the first is lower: -4.07 for the first, -1.45 for the second.

Going from C40U G52A C53U C124A to C40G A41U G45A G60A A91U, the “polymerase ribozyme fitness (log ratio)” value falls from 0.594 to -4.96.

Going from C40G G135U to C40U G63C A74C U131A, the “polymerase ribozyme fitness (log ratio)” value falls from -1.71 to -2.75.

Going from C40U C82U A84G G107U to C40U C53G A75G G117A, the “polymerase ribozyme fitness (log ratio)” value rises from -6.74 to -2.56.

C40G C104A and C40G C49A G77A C115A are within 0.2 log units of each other in “polymerase ribozyme fitness (log ratio)” value: -2.31 for the first, -2.4 for the second.

First: C40A A41G C70U
Second: C40U A41U C72U
The “polymerase ribozyme fitness (log ratio)” value of the first is higher: -1.7 for the first, -1.91 for the second.

First: C40U A50U G52U U87A C102A U106A A118G
Second: C40A G71U G110C C114A
The “polymerase ribozyme fitness (log ratio)” value of the first is lower: -7.38 for the first, -6.53 for the second.

First: C40U G47A G48C G93A G122A
Second: C40A A41U A50C C62A
The “polymerase ribozyme fitness (log ratio)” value of the first is higher: -1.34 for the first, -5.7 for the second.

First: C40A C70U
Second: C40U C56A C73U C82G C97U C115U
The “polymerase ribozyme fitness (log ratio)” value of the first is higher: -0.716 for the first, -4.44 for the second.

Going from C40U C72U U116G G120C G128U to C40U G47U U109A U129G, the “polymerase ribozyme fitness (log ratio)” value falls from -4.53 to -7.79.

First: C40U C49A C73U C98G
Second: C40U A41C C79A U92A
The “polymerase ribozyme fitness (log ratio)” value of the first is lower: -6.1 for the first, -5.35 for the second.

Compared with C40A G61A A105G, C40A C72U G77C G110U is higher in “polymerase ribozyme fitness (log ratio)” value: -4.93 for the first, -3.75 for the second.

First: C40U C62A
Second: C40G A50U G61A C79U C85G G117U A121U U134A
The “polymerase ribozyme fitness (log ratio)” value of the first is higher: -1.61 for the first, -2.53 for the second.

Going from C40A G44A U78C to C40A G52A C101A, the “polymerase ribozyme fitness (log ratio)” value falls from -2.1 to -3.1.

Going from C40A G60A G61A U112A to C40U C49A C79U G113U U125C, the “polymerase ribozyme fitness (log ratio)” value falls from -3 to -4.03.
